Data on three molecules can be found in patent US20140235820A1, “METHODS AND COMPOSITIONS FOR MODULATING THE Wnt PATHWAY” (Genentech, Inc., priority 2010, published 2014).

Usually Kd stands for a measure of binding affinity in units of concentration.

Changes are numbered by the printed parent chain.

Assay [1] concerns the target T1, human LRP6 construct E1 (amino acids A20-D325) (human, UniProt O75581 20-325).
T1 construct: range 20-325; In the Fab crystal E1 arose from E1E2 degraded beyond Arg 335; residues Ala20 to Lys324 were traced; also called LRP6 E1; E1 domain
T1 sequence (looked up): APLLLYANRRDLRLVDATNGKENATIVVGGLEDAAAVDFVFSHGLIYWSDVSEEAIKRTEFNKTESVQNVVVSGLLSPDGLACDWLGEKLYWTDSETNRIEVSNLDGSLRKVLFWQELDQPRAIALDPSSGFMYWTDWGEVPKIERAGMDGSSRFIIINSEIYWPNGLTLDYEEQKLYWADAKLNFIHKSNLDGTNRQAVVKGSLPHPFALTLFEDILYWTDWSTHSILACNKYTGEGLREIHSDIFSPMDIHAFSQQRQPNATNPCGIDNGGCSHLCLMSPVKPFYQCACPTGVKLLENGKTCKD
Kind of assay: synthetic peptides, competition IC50 (FIG. 17A).

A further assay has as its target T2, LRP6 E1E2 Asn185Ser (human, UniProt O75581 20-631).
T2 construct: range 20-631; also called LRP6 E1E2 N185S (analogue of LRP5 BMD mutation Asn198Ser)
T2 sequence (looked up): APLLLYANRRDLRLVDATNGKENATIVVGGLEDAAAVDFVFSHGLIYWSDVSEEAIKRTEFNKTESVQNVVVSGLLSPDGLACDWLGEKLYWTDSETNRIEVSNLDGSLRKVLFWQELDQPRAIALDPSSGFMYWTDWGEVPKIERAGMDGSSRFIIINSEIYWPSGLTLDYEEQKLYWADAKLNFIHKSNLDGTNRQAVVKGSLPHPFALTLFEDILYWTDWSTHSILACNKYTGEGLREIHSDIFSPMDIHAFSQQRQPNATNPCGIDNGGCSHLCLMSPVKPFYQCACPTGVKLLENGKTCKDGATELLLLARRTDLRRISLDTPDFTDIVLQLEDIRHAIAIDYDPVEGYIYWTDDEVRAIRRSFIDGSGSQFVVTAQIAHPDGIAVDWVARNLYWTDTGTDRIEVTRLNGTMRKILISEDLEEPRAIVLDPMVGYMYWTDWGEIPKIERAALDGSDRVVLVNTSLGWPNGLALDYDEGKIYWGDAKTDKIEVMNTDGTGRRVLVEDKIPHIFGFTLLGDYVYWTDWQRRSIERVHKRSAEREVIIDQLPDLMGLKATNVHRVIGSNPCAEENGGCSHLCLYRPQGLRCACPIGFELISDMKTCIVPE
Kind of assay: BLI steady-state affinity. The method, then: (§1) Binding kinetics were measured by biolayer interferometry using an Octet Red instrument (ForteBio) as previously described (11). Streptavidin (SA) biosensors were loaded with biotinylated hLRP6 in 50 mMTris, pH 8, 300 mM NaCl, 5% (v/v) glycerol, and 0.05% (w/v) Triton X-100. The loaded biosensors were washed in the same buffer before carrying out association and dissociation measurements for the indicated times. The Kd of each interaction was determined using steady state-analysis through the Octet Red software v6.3. Each reported value represents an average of three or more experiments at different concentrations, with a fitted experimental curve for which the square of the correlation coefficient (R²) is above 0.96.

Another assay deals with T3, LRP6 E1E2 Arg141Met (human, UniProt O75581 20-631).
T3 construct: range 20-631; also called LRP6 E1E2 R141M
T3 sequence (looked up): T2 sequence (looked up) with R122M, S166N
Kind of assay: BLI steady-state affinity. Here is the method: as §1

Assay [2] concerns the target T4, human LRP6 construct E3E4 (amino acids E631-Q1253) (human, UniProt O75581 631-1253, biotinylated for biolayer interferometry).
T4 construct: range 631-1253; also called LRP6 E3E4
T4 sequence (looked up): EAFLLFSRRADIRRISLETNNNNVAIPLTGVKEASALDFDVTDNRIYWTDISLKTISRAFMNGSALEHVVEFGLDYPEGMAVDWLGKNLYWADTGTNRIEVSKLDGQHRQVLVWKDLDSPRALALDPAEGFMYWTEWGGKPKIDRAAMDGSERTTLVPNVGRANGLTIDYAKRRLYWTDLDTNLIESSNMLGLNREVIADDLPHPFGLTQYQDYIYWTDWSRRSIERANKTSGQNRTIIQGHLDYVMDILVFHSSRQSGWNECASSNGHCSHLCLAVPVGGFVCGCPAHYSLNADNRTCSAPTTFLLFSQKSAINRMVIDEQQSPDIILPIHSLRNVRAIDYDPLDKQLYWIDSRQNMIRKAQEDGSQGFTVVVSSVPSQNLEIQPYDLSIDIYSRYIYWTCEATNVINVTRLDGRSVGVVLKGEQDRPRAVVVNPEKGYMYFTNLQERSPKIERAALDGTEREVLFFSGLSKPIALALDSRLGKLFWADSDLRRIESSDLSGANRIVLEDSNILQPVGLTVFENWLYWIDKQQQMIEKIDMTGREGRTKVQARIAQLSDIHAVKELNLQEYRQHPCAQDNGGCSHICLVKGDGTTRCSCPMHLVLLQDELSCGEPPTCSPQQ
Kind of assay: BLI (Octet Red), biotinylated LRP6 on streptavidin tips, steady state. The method, then:
as §1
(Biolayer interferometry detects binding as a change in optical thickness at a sensor tip.)

For assay [3], the target named is T5, human LRP6 construct E1E2 (amino acids A20-E631) (human, UniProt O75581 20-631, biotinylated for biolayer interferometry).
T5 construct: range 20-631; also called LRP6 E1E2
T5 sequence (looked up): T2 sequence (looked up) with S166N
Described as above. Here is the method:
as §1

In assay [4] the target is T6, human LRP6 construct E4 (T933-Q1253) (human, UniProt O75581 933-1253, biotinylated for biolayer interferometry).
T6 construct: range 933-1253; also called LRP6 E4
T6 sequence (looked up): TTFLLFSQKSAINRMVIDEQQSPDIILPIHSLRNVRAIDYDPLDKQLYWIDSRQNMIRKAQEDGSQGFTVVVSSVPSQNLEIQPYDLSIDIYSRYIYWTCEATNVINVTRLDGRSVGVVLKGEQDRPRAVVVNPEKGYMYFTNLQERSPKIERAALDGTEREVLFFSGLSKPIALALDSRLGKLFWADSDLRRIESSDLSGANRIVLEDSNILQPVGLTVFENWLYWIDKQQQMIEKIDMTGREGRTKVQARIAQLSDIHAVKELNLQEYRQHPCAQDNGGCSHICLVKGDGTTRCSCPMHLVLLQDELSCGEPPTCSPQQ
Kind of assay: BLI, biotinylated LRP6 on streptavidin tips. Here is the method:
as §1
Purified receptors contained individual β-propeller-EGF-like units (E1, E2, or E4), two β-propellers (E1E2 or E3E4), or four β-propellers (E1E4))—as follows: […]

As for NSNA [Dkk1 peptide lacking three residues from the C-terminus], the binding result in assay [1] is “no binding”.

As for AIKN [Dkk1 peptide lacking three residues from the N-terminus], the binding result in assay [1] is listed as “no binding”.

B1: Dkk1 (wild type) (ligand, human, UniProt O94907 32-266, looked up)
chain: TLNSVLNSNAIKNLPPPLGGAAGHPGSAVSAAPGILYPGGNKYQTIDNYQPYPCAEDEECGTDEYCASPTRGGDAGVQICLACRKRRKRCMRHAMCCPGNYCKNGICVSSDQNHFRGEIEETITESFGNDHSTLDGYSRRTTLSSKMYHTKGQEGSVCLRSSDCASGLCCARHFWSKICKPVLKEGQVCTKHRRKGSHGLEIFQRCYCGEGLSCRIQKDHHQASNSSRLHTCQRH
notes: also called Dickkopf 1; human Dkk1
Consider B1, for which the results for the “fold loss in affinity against wild-type LRP6 E1E2” value with LRP6 E1E2 Asn185Ser and with LRP6 E1E2 Arg141Met were 183 fold and 29 fold, respectively. Also, the values for the Kd in assay [2] and in assay [3] were 51 nM and 22 nM, respectively. Also, the binding result in assay [4] is “no binding”.
